# Source: the DeepSol protein solubility set
# Test: soluble on expression in E. coli; label from the status in PepcDB or PDB records
row,Sequence,soluble on expression in E. coli
1,MSLRPTEYIDLHCHLLPGLDDGPQQLAQAVEMARQAVADGIHYVLATPHHLDRRYQNTGLVVERSVAELQAELKRQQIPLTVFAGQEVHLRDDLATALPHLLGIDVGRRYLLLELPHEQVPNYVAQVIFELLQQGTTPVIAHPERNAQIMAQPERLYDLVQQGCLAQLTAGSLVGQFGRAVKSTALELVECGLVQVIASDAHLMARRGFMMRAGYQALARLDSTNPASFAVNARLLLNGDPVVLGEVLRPNQRRKFWLFEGHHHHHH,not soluble
2,MTITGIIAEFNPFHNGHKYLLDQAEGLKIVAMSGNFMQRGEPAIVDKWTRTQMALENGADLVVELPFLVSVQAADFFGQGAMDILDRLGIDSLVFGTEEVRDYQKIADLYTEKGAEMEKFVENLPDSLSYPQKTQAMWKEFAGLDFSGNTPNHVLALAYAKAVAGRNIKLHPIQRQGAGYHSVNKDVDFASATALRQHQKDQDFLERFMPSVALFEQASKVIWEDYFPLLRYQILSNPDLTTIYQVNQEMAVRIKEAIKTAQSVEELVELVTTKRYTKARVRRLLTYILMQARESDLPEAIHVLGFTEKGRQHLKSLKGQVSLVSRIGKEPWDAMTQKADQIYQLGKPSIAEQNFGRVPIRIETN,soluble
3,MKIKWLGHACFLLTSDNGIRVVTDPYDNTVGYKVEKIDAEIVSTSHDHYDHNYVDMVSENAKHVKSEGKTNIDGIEITGVTSFHDDCKGAKRGKNVIFKFKIDGIDVCHLGDLGHVLSDSQVREIGNVDVLLVPVGGVYTIDYKGAVEVMKLVNPKITIPMHYKTPALSFDVDGVENFLSATGGKHIGKQEIELKKDEIENWPKVVALDYQ,soluble
4,MSAPLYMQIKQFILDKIDSGDWMVGQRIATEIELTEQFGVSRMTVNKAIRDLVNEGKLQRRPRLGTFVCDPSEKSESPLLDIRNIAEEVSDRGRQYSSKVVQQVAIKADDSIAIKLGVMLGTTVFYSEIIHYEDSTPIQLELRWVNSQYAPSYLSQDFTQITPNQYLSNNCPLSAIEHTVEAIVPDNRIKLDLKMQANEPCLLLNRRTWSQDKLVSTALLYHPGNKYKLSSKVLL,not soluble
5,MDVLPGRPRARRRRRRRQSRANILAIGVHLPRLRLSRGAMANALGWLSGGAGAGKGSRTLAYWDEDSVTMAVAAARHALARQAAPAIDALQFASTTPPFAEPQNAAFVRAALRLPATTLTQDVHGTPRAGLLALHMALESGTRTLVAAADLPTALPGSTAEARAGDGGAAVLTGDEPGLLRYLGGASLSAPFTDRYRAAGHDYPQEWEERWLREAGYLELVHDAIGRALQAASLRPEQVDHFVLPCPVPGVAAAVAAKAGLGQARLASALAENCGDTGAAHAFVMLGRALEDAAPGQKVLVAQFGQGATALLFEADEAVAGLAAPVSPALRDGLAEDNYMKLLAFRGRIAWDRGLRGRFLVNEALSTAWRNADALLDFVGGRCRETGQVQFPPTRLAATGGFHLDTQEPWPLADRGGRIATFTADLLAFSPCPPNCYGLVDIDGGGRVLMEFTDPQASQLEAGAAVAFALRIKDLDPQTGYRRYFWKALAAPTAD,not soluble
6,MALSKVKLNDTLNKDQLLSSSKYTIQRSTGDSIDTPNYDVQKHINKLCGMLLITEDANHKFTGLIGMLYAMSRLGREDTIKILRDAGYHVKANGVDVTTHRQDINGKEMKFEVLTLASLTTEIQINIEIESRKSYKKMLKEMGEVAPEYRHDSPDCGMIILCIAALVITKLAAGDRSGLTAVIRRANNVLKNEMKRYKGLLPKDIANSFYEVFEKHPHFIDVFVHFGIAQSSTRGGSRVEGIFAGLFMNAYGAGQVMLRWGVLAKSVKNIMLGHASVQAEMEQVVEVYEYAQKLGGEAGFYHILNNPKASLLSLTQFPHFSSVVLGNAAGLGIMGEYRGTPRNQDLYDAAKAYAEQLKENGVINYSVLDLTAEELEAIKHQLNPKDNDVEL,soluble
7,MKKLLAGVLVSAIAFAKPVFMDAEWAKQFCEVWNNTPELVEKLGKSESWTEVPERKLFLYRKDCGPEKQIQLTIKNENGRAVCVYGGWKKDEKTDNDFLMYADTKRWLEMGRKEYGPMKAMLFGRLKFEGPRFVAMKNMGPFEAFLDKIDEVEADTSRCP,not soluble
8,MRMAQVVLENVTKVYENKVVAVKNANLVVEDKEFVVLLGPSGCGKTTTLRMIAGLEEITDGKIYIDGKVVNDVEPKDRDIAMVFQNYALYPHMTVYENMAFGLKLRKYPKDEIDRRVREAAKILGIENLLDRKPRQLSGGQRQRVAVGRAIVRNPKVFLFDEPLSNLDAKLRVQMRSELKKLHHRLQATIIYVTHDQVEAMTMADKIVVMKDGEIQQIGTPHEIYNSPANVFVAGFIGSPPMNFVNARVVRGEGGLWIQASGFKVKVPKEFEDKLANYIDKEIIFGIRPEDIYDKLFALAPSPENTITGVVDVVEPLGSETILHVKVGDDLIVASVNPRTQAKEEQKIDLVLDMTRMHAFDKETEKAII,soluble
9,MGSDKIHHHHHHMFVNRRAELKILHSAYESLKRGEKVNVAIIGPRRIGKTELLLKFKEEVNGVVPYLNLQRIGSLESFIFAYTRELLYEIAKVVGMSIERSDLLTWDDLLILSAKLDLEREVKAIRDGTLETLFEMQEAILEKTGQKAVFILDEFQEVVNFKGFLETMRAVTEKQRNIAYFISGSAVRMMEEILAPKNPFFGQFKRVYLRGLPKEDTIELAKTTLERAGIEATHSALELIYKLTQGHPFYVLALCRRLIEEGFEKVKSRDVYYAFLTELLSEKGDIYMHLEYLFNESLSRAYKGPIHKQILLILAQEEGLRLSEIARRLNKPSGEVSNYLKFLLRTDLILKQGERYYFTDKLMRFWLAKTYLGITELELRRERFLEELVRELEEKYLKAKKELGIAKEAMIRERMREIFDIDFKPYRRGDVEFDGVAFRDGVYVLEIKWRNRPATYKDVKDFIRKVKGEFGSATMFFFSRSGFTEKAKELCEKEGVKMLTPKDLGIS,not soluble
10,MGSDKIHHHHHHMNYKELNKIFKETLSLRWDPVAVRMMRPGEEKPAQGIEPTVPLRHCQSIITARRGNCLYMPPRSHACPDGTGVLGLVEMSPKLRSGDLYLLFKKMPNIETARQMISSRPEFKAGSYEATLLAPLEKAAFEPDVVVFTLWPEQAMWLCCAQTYATGERQDFKTSGFNSACADLIVQTMTSGEMNISFGCYGARASSEIDDFELYLAIPTALLEPIAQALLKLSQKSIPEERKKIYLHPVMDKVGSRRAQSQGEGARVELFVDTERCMGDGLCVDFCPSGVLAMVEAGDRKVAQALHPDACSACYTCVGQCPQQAIQLSYN,not soluble
11,MKPFCTVMANGEDITRTLMDYVLSIEITDEAEDKSDRITIELDDRARECDNGFLDIPLIGTIISVTLGYEGGKNRDMGAYLIDEISVSSPPQSLSVTGRAASMNTSYRTPKSQSYHQQTLGNIIQEIAERNGYTPKVDPALAKIVVRHIDQTSESDMAFATRLAEDYDAVAKPVDGKLVLAKRGEGKAITGETLPVVVIHEKLCSSWDFKYSARDEAGAANGLATEAGDDQKAAADAREPEEVEEGEDVIHMDESDAPNLPKAETEAKTPENQEQDEEKKGGVLASYHDIRTGEKKEVKVGKAPFHELKYTYHNQSEAVAAIAAYRNKSSRGKSSFSCDIGGDPFVQAEAKLVQEPPFRPYIPAEWRIKSVKHKLDKTGGYTTKIDCELFDETQEDAAGNVANTTPDKDDTLDPNAPPNACDEGEGVIHMDEEDR,not soluble
12,MGSDKIHHHHHHMTAAVKTTPGFASRLVNGVLAIKPLANLAKHQARQMMIKRAERIGVPWTKEVKTLQARDWKADLTQIENSQLSYPDYYVTSFHAYETGNLSWQAAFEVEPAAYAVHSKVVEGAEEAQGDPMLRQSYHNILKSQIPNEPQDILDVGCSVGLSTFALQAVYSQAKIIGLDLSPYFLAVANYRAQQRQAKINWLHAQAESTGLPDASFDLVSIFLMCHELPQSATRQILAEMRRVLRPGGYLAIMDMNPKSEVYQKMPAYILTLLKSTEPYLDEYFALDIEQAFVEAGFQTPTITNNTHRHRTVIAQVSG,not soluble
13,TVEAKNETFAPQHPDQYLSWKATSEQSERVDALAEDPRLVILWAGYPFSRDYNKPRGHAFAVTDVRETLRTGAPKNAEDGPLPMACWSCKSPDVARLIQKDGEDGYFHGKWARGGPEIVNNLGCADCHNTASPEFAKGKPELTLSRPYAARAMEAIGKPFEKAGRFDQQSMVCGQCHVEYYFDGKNKAVKFPWDDGMKVENMEQYYDKIAFSDWTNSLSKTPMLKAEHPEYETWTAGIHGKNNVTCIDCHMPKVQNAEGKLYTDHKIGNPFDNFAQTCANCHTQDKAALQKVVAERKQSINDLKIKVEDQLVHAHFEAKAALDAGATEAEMKPIQDDIRHAQWRWDLAIASHGIHMHAPEEGLRMLGTAMDKAADARTKLARLLATKGITHEIQIPDISTKEKAQQAIGLNMEQIKAEKQDFIKTVIPQWEEQARKNGLLS,soluble
